Source: US20100260765A1 (AstraZeneca / MedImmune, published 2010)
Substitutions are numbered along the chain they refer to.

B1: anti-KDR monoclonal antibody 30H10 (antibody, V domains shown)
VH: EVQLLESGGGLVQPGGSLRLSCAASGFTFSNYAMSWVRQAPGKGLEWVSAISGSGGITYYADSVKGRFTISRDNSKNTLFLQMNSLRAEDTAVYYCAKASGDNWGQGTLVSVSS
VL: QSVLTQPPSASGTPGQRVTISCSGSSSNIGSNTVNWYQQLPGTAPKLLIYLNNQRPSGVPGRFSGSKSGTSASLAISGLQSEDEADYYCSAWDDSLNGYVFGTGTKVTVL
notes: Fully human mAb from XenoMouse (IgG2 or IgG4 strain); hybridoma supernatant
B2: anti-KDR monoclonal antibody 33C3 (antibody, V domains shown)
VH: QVQLVESGGGLVKPGESLRLSCAASGFTFSDYYMSWIRQAPGKGLEWVSYISHGGSTIYYADSVKGRFTISRDNAKNSLYLQMNSLRVEDTAVYFCARDDFWSGYYFNWFDPWGQGALVTVSS
VL: DIQMTQYPLSLSASVGDRVTITCRASQSISSFLNWYHQKPGKAPKLLIYGTSSLQSGVPSRFSGSGSGTDFTLTISSLQPEDFATYYCQQTYSIPLTFGGGTNVEIK
notes: as for B1
B3: anti-KDR monoclonal antibody 33E1 (antibody, V domains shown)
VH: QVQLQESGPGLVKPSQTLSLTCTVSGGSISSGDHYWSWIRQHPGKGLEWIGHIYYSGSTDYNPSLKSRVTISVDTSKNHFSLKLNSVTAADTAVYYCARTNSSSWSDWYFDLWGRGTLVTVSS
VL: DIVMTQSPDSLAVSLGERATINCKSSQSILYSSNNKNYLAWYQRKPGQPPILLIHWASTRESGVPDRFSGSGSRTDFTLTISSLQAEDVAVYYCQQYFITPWTFGQGTKVEIK
notes: as for B1
B4: anti-KDR monoclonal antibody 29H3 (antibody, V domains shown)
VH: QVQLVQSGAEVKKPGASVKVSCKASGYTFTSYDINWVRQATGQGLEWMGWMNPNSGKTGYAQKFQGRVTMTRNTSINTAYMELSSLRSEDTAVYYCARGGYSNLGWFDPWGQGTLVTVSS
VL: DIQMTQSPSSVSASVGDRVTITCRASQGISSWLVWYHQKPGKAPKLLIYGASSLQSGVPSRFSGSGSGTDFTLTISSLQPEDFATYYCQQANNFPFTFGPGTKVDIK
notes: as for B1
B5: anti-KDR monoclonal antibody 22B8 (antibody, V domains shown)
VH: QLQLQESGPGLVKPSETLSLTCTVSGGSISSRYYYWGWVRQPPGKGLEWIGTIYYSGHTYYNPSLKTRVTISVDTSKNQFSLKLISVTAADTAVYYCATQQLVLYYFDFWGQGTLVTVSS
VL: EIVLTQSPGTLSLSPGERAALSCRASQSISSSYLAWYQQRPGQAPRLLIYGASSRATGIPDRFNGSGSGTDFTLTISRLEPEDFAVYYCQQFGSSITFGQGTRLEIK
notes: as for B1
B6: anti-KDR monoclonal antibody 27D10 (antibody, V domains shown)
VH: B5 VH with Y33S, Y34D, V39I, H58S, Y60F, T67S, I85S, T99R, F109Y
VL: not shown
notes: as for B1
B7: anti-KDR monoclonal antibody 30A1 (antibody, V domains shown)
VH: B5 VH with R32P, Y33N, V39I, H58N, Y60F, T67S, I85S
VL: B5 VL with E17K, R40K, F92L
notes: as for B1
B8: anti-KDR monoclonal antibody 24B3 (antibody, V domains shown)
VH: EVQLVESGGGLVKPGGSLRLSCAASGFTFSTYSMNWVRQAPGKGLEWVSFISGRSSYIYYADSVKGRFTISRDNAKNSLYLQMNSLRAEDTAVYYCSKDDWFEELWGQGTLVTVSS
VL: DIQMTQSPSSLSASVGDRVTITCRASQGIRSDLGWYQQKPGKAPKRLIYATSSLQSGVPSRFSGSGSGTEFTLTISSLQPEDFATYYCLQHNRYPWTFGQGTKVEIK
notes: as for B1
B9: anti-KDR monoclonal antibody 32G7 (antibody, V domains shown)
VH: B8 VH with F29I, T31S, G53S, S56N
VL: B8 VL with G28D, S31N, T51A, R93S, Y94F
notes: as for B1
B10: anti-KDR monoclonal antibody 33B1 (antibody, V domains shown)
VH: B8 VH with T31S, S33T, S52D, G53S
VL: B8 VL with S31N, Q90H, R93S, Y94F
notes: as for B1

molecular target: T1, human KDR (VEGFR2) on cells (human, UniProt P35968 20-1356); test: cell-based or functional assay
T1 sequence (P35968 20-1356): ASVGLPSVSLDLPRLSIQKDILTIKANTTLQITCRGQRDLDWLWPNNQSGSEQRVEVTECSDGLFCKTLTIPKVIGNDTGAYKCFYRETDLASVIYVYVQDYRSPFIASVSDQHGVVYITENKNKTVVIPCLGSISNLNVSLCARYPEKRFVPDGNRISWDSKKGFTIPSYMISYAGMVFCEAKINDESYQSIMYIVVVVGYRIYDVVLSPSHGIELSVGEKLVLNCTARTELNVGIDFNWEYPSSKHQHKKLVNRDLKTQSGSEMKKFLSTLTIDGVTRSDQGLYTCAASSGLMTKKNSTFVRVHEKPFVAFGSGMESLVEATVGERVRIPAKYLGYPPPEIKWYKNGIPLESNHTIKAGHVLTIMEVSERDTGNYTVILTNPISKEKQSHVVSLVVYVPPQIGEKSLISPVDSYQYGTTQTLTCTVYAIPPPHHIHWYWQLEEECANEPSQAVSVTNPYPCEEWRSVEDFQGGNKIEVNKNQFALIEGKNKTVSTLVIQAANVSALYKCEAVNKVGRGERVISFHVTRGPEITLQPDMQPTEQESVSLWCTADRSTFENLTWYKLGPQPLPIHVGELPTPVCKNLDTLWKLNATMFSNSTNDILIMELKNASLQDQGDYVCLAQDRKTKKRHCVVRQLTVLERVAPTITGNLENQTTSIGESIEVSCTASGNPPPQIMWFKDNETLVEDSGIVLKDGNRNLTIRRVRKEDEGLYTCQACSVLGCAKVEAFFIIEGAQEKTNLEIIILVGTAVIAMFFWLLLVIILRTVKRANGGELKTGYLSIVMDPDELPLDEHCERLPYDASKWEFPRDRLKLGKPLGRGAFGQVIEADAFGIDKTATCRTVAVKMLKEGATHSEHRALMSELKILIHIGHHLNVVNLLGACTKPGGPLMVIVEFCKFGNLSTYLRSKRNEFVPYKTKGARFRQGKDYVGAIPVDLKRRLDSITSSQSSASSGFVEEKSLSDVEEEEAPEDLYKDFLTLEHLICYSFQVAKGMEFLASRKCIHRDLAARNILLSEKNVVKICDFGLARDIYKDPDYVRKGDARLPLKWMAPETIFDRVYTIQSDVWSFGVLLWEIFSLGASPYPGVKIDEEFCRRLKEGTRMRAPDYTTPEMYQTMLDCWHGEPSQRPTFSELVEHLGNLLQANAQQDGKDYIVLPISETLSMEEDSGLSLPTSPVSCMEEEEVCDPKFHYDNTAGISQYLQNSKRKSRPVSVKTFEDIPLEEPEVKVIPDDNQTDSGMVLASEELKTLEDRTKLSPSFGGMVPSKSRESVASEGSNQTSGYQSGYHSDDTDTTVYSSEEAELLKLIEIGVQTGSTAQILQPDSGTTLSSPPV

Row | Binder | % Inhibition of VEGF165-mediated pTyr Activity, Average [%] | % Inhibition of VEGF165-mediated pTyr Activity, n = 1 [%] | % Inhibition of VEGF165-mediated pTyr Activity, n = 2 [%] | % Inhibition of VEGF165-mediated pTyr Activity, n = 3 [%]
1 | B1 | 76 | 92 | 77 | 59
2 | B2 | 71 | 87 | 75 | 50
3 | B3 | 73 | 88 | 78 | 52
4 | B4 | 76 | 89 | 72 | 66
5 | B5 | 67 | 82 | 65 | 53
6 | B6 | 58 | 62 | 48 | 63
7 | B7 | 65 | 86 | 59 | 52
8 | B8 | 51 | 69 | 51 | 33
9 | B9 | 44 | 73 | 47 | 11
10 | B10 | 54 | 76 | 56 | 31

molecular target: T1, human KDR (VEGFR2) on cells; test: cell-based or functional assay; remark: another data set of the same source

Row | Binder | % Inhibition of VEGF-E-mediated pTyr Activity [%]
11 | B1 | 20
12 | B2 | 66
13 | B3 | 46
14 | B4 | 18
15 | B5 | 61
16 | B6 | 63
17 | B7 | 50
18 | B8 | 40
19 | B9 | 57
20 | B10 | 54

molecular target: T1, human KDR (VEGFR2) on cells; test: cell-based or functional assay; remark: another data set of the same source

Row | Binder | HUVEC survival (n = 1) 1:10 dilution of supernatant (RLU) | HUVEC survival (n = 2) 1:20 dilution of supernatant (RLU)
21 | B1 | 39500 | 21100
22 | B2 | 6540 | 4710
23 | B3 | 25700 | 2310
24 | B4 | 32700 | 544
25 | B5 | 12900 | 3260
26 | B6 | 20100 | 9710
27 | B7 | 14400 | 9730
28 | B8 | 14100 | 2460
29 | B9 | 24900 | 11900
30 | B10 | 19400 | 12500

molecular target: T1, human KDR (VEGFR2) on cells; test: FACS on HUVEC, hybridoma supernatant 1:50
Experimental: HUVECs were seeded at 15,000 cells/well and incubated with 100 μL of sample supernatant (at 1:50 dilution) for one hour at 4° C. The positive control was goat anti-KDR antibody (R&D Systems, Inc.), and negative controls included irrelevant hybridoma supernatants at the same dilution. The cells were then washed and incubated with Cy5-conjugated goat anti-human antibody at 5 μg/mL and 7-Amino-Actinomycin D (7AAD) at 5 μg/mL for 15 minutes at 4° C. Bound KDR was detected using FACS analysis.

Row | Binder | FACS Geometric Mean
31 | B1 | 31
32 | B2 | 20
33 | B3 | 14
34 | B4 | 27
35 | B5 | 24
36 | B6 | 24
37 | B7 | 25
38 | B8 | 26
39 | B9 | 28
40 | B10 | 25

molecular target: T2, mouse KDR (Flk-1)/Fc (Cat. #443-KD/CF, R&D Systems) (mouse, UniProt P35918 20-762); test: ELISA, plate-coated Flk-1/Fc 500 ng/mL, hybridoma supernatant 1:5
T2 construct: Bought reagent; also called mouse VEGFR2; KDR mouse ortholog; Fc part of the bought chimera not given
T2 sequence (P35918 20-762): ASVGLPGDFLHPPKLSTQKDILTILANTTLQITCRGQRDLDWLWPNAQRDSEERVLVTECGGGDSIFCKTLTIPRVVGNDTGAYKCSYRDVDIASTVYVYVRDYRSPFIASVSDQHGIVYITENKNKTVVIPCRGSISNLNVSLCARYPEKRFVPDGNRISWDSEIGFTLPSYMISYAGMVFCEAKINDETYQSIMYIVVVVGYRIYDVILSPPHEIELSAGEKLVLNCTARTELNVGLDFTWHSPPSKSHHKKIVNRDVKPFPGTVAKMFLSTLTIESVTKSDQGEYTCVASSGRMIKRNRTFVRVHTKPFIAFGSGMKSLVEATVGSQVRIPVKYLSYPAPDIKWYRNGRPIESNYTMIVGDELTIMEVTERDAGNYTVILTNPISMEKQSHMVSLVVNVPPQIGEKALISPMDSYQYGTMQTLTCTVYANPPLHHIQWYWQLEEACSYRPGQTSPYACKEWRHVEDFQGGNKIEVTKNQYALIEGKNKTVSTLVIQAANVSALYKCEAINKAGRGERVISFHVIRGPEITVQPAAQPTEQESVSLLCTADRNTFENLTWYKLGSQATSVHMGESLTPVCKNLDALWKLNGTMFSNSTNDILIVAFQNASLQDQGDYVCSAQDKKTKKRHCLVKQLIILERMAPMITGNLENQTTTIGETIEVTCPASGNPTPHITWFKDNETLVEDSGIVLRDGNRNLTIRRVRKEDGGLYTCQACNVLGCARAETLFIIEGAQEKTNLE
Experimental: The cross-reactivity of antibodies in the hybridoma supernatant was tested against KDR mouse ortholog (mouse VEGFR2, or Flk-1) and human VEGFR1 (Flt-1). Cross-reactivity was measured using an ELISA based assay.
After washing and blocking the plates, the antibody-containing supernatants were added (at 1:5 dilution) into the coated wells and incubated for one hour at room temperature. The plates were then incubated with mouse anti-human IgG 2, 3 and 4 and subsequently with goat anti-mouse IgG Fc POD, to detect and measure bound antibodies.

Row | Binder | OD (450 nm) [OD450]
41 | B2 | 0.076
42 | B3 | 0.097
43 | B4 | 0.096
44 | B5 | 0.074
45 | B6 | 0.166
46 | B7 | 0.107
47 | B8 | 0.094
48 | B9 | 0.092
49 | B10 | 0.108

molecular target: T3, soluble KDR (VEGF Receptor 2 D1-7, Cat. #676490, Calbiochem) (human, UniProt P35968 20-764); test: ELISA, plate-coated soluble KDR 250 ng/mL, hybridoma supernatant 1:5
T3 construct: extracellular domain; Bought reagent; also called soluble human KDR; immobilized soluble KDR
T3 sequence (P35968 20-764): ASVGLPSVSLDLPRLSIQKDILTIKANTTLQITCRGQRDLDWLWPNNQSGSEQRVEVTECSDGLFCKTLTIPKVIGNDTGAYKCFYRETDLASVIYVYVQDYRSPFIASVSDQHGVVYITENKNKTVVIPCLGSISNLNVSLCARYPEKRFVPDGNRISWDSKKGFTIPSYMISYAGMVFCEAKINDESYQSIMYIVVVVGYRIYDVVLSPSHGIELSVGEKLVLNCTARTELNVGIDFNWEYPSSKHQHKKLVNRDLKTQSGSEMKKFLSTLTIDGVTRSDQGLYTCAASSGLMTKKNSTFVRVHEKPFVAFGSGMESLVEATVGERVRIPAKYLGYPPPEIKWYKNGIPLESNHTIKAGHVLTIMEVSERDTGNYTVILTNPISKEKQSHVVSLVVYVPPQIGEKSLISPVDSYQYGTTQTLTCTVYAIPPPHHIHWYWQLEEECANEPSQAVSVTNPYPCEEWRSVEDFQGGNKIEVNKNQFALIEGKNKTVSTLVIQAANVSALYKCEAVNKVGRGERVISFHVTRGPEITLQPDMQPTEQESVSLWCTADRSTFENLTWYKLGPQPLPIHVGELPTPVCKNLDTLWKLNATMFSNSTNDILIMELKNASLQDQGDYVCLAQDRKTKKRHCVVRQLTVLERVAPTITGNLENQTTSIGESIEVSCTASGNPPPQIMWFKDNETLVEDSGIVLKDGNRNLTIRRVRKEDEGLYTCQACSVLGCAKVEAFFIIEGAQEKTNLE
Experimental: To screen by binding to immobilized soluble KDR, plates were coated with KDR (Calbiochem) at 250 ng/mL overnight at 4° C. After blocking and washing the coated plates, the candidate hybridoma supernatants (at 1:5 dilution) were transferred to the plates and incubated for one hour at room temperature. The plates were then washed and incubated with secondary antibody (at 1:4000 dilution) for one hour at room temperature.

Row | Binder | KDR OD(450 nm) [OD450]
50 | B1 | 0.943
51 | B2 | 1.15
52 | B3 | 4.55
53 | B4 | 0.83
54 | B5 | 1.18
55 | B6 | 3.24
56 | B7 | 0.786
57 | B8 | 6
58 | B9 | 1.07
59 | B10 | 1.11

molecular target: T4, b-KDRIg4-7-myc-his (UniProt P35968 328-764, prefix 'b-' not explained; captured on neutravidin-coated plates (presumably biotinylated, site not stated)); test: ELISA, b-KDRIg4-7-myc-his 1 ug/mL on neutravidin, hybridoma supernatant 1:5
T4 construct: domain: Ig4-7; The text calls it 'a KDR antibody containing the Ig4-7 domain'; it is read as the KDR fragment; Purified on a nickel column; also called Ig4-7 domain of KDR; soluble KDR Ig4-7; not shown: myc-his tag of the pSecTag vector
T4 sequence (P35968 328-764): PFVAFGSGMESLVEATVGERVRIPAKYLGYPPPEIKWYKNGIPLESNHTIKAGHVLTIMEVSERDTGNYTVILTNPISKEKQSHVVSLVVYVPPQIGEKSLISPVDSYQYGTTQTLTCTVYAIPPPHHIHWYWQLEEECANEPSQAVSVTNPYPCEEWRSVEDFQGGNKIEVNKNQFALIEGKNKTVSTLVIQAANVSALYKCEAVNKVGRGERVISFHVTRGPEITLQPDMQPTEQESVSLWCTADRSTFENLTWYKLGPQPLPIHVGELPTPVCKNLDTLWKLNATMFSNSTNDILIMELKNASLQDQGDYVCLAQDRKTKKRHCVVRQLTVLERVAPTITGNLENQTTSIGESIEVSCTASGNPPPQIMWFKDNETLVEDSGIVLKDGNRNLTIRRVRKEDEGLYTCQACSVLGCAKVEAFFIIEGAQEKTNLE
Experimental: To screen by binding to the Ig4-7 domain of KDR, plates were first coated with neutravadin (Pierce) at 4 μg/mL and incubated overnight at 4° C. The plates were then blocked and subsequently incubated with b-KDRIg4-7-myc-his at 1 μg/mL for one hour at room temperature. Candidate hybridoma supernatants (at 1:5 dilution) were transferred to the plates and incubated for one hour at room temperature. The plates were then washed and incubated with goat anti-human IgG Fc POD (at 1:4000 dilution) for one hour at room temperature.

Row | Binder | b-KDRIg4-7 OD(450 nm) [OD450]
60 | B1 | 0.047
61 | B2 | 3.66
62 | B3 | 0.62
63 | B4 | 0.071
64 | B5 | 2.81
65 | B6 | 2.03
66 | B7 | 1.21
67 | B8 | 0.065
68 | B9 | 0.068
69 | B10 | 0.058
